From US20130344070A1 (SORRENTO THERAPEUTICS, published 2013)

Key:
[1] = target: T1, human CCR2 (CC-Chemokine Receptor 2) (human, UniProt P41597 1-374); test: flow cytometry on CHO-CCR2 cells (FIG. 1)
T1 construct: whole, on cells; also called huCCR2; CHO-huCCR2
Procedure: (§1) The data in FIG. 1 illustrates in vitro data for cellular binding EC₅₀ measurements. […] In this example, CHO-CCR2 cells were lifted from culture flasks using non-enzymatic Cell Dissociation Buffer—PBS based (Life Technologies #13151-014). Cells were resuspended in FACS Buffer (2% Fetal Bovine Serum in PBS) at 1×10⁶ cells/ml and 100 μl (1×10⁵ cells) were aliquoted into the wells of a 96-well plate. Plated cells were spun down and the supernatant discarded. Cells were resuspended in 50 μl FACS Buffer containing the indicated concentrations of CCR2 D1 IgG in triplicate (FIG. 1). Plates were incubated for 1 hr at 4° C., then washed 1× with FACS Buffer. Cells were resuspended in 50 μl goat anti-human IgG (γ-chain specific)-PE conjugated secondary antibody (Southern Biotech #2040-09) diluted 1:500 in FACS Buffer. Cells were further incubated for 30 min at 4° C. and then washed 1× with FACS Buffer. The cells were resuspended in a final volume of 25 μl FACS Buffer and analyzed using the Intellicyt Flow Cytometer. Median fluorescence in the FL-2H channel was determined using FlowJo software and EC₅₀ value was determined by plotting the data in GraphPad Prism and analyzing using a variable slope non-linear regression.

murine CCR2 [2] = target: T2, murine CCR2 (murine, UniProt P51683 1-373); test: cell-based or functional assay
T2 sequence (P51683 whole entry): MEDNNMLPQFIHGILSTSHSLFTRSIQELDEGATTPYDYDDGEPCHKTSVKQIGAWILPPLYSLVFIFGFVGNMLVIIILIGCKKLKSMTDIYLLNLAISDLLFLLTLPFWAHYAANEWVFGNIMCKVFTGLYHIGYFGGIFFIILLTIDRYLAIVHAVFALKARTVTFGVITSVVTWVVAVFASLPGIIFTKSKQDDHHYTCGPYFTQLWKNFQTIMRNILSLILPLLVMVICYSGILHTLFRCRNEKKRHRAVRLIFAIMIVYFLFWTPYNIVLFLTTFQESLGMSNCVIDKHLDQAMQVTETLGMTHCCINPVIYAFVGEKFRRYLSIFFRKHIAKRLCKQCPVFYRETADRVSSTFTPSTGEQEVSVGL

[3] = target: T1, human CCR2 (CC-Chemokine Receptor 2); test: flow cytometry on CHO-huCCR2 cells, PE anti-human IgG
Procedure: as §1

[4] = target: T1, human CCR2 (CC-Chemokine Receptor 2); test: cell-based or functional assay
murine CCR2 [5] = target: T2, murine CCR2; test: cell-based or functional assay; remark: listed apart in the source
[6] = target: T1, human CCR2 (CC-Chemokine Receptor 2); test: cell-based or functional assay; remark: listed apart in the source
murine CCR2 [7] = target: T2, murine CCR2; test: flow cytometry on WEHI 274.1 cells (murine CCR2), PE anti-human IgG
Procedure: In this example, WEHI 274.1 cells were resuspended in FACS Buffer (2% Fetal Bovine Serum in PBS) at 1×10⁶ cells and […] of cell suspension was aliquoted into the wells of a 96-well plate. Plated cells were spun down and the supernatant discarded. Cells were resuspended in 30 μl FACS Buffer containing serially diluted anti-CCR2 IgGs in triplicate. Plates were incubated for 1 hr at 4° C., then washed 2× with FACS Buffer. Cells were resuspended in 50 μl goat anti-human IgG (γ-chain specific)-PE conjugated secondary antibody (Southern Biotech #2040-09) diluted 1:500 in FACS Buffer, incubated for 30 min at 4° C. and then washed 1× with FACS Buffer. The cells were resuspended in a final volume of 30 μl FACS Buffer and analyzed using the Intellicyt Flow Cytometer. Median fluorescence in the FL-2H channel was determined using FlowJo software and EC₅₀ values were determined by plotting the data in GraphPad Prism and analyzed using a variable slope non-linear regression.

[8] = target: T1, human CCR2 (CC-Chemokine Receptor 2); test: cell-based or functional assay; remark: listed apart in the source
murine CCR2 [9] = target: T2, murine CCR2; test: flow cytometry on murine CCR2-expressing cells (FIG. 2)
[10] = target: T1, human CCR2 (CC-Chemokine Receptor 2); test: cell-based or functional assay; remark: listed apart in the source

T1 sequence (P41597 whole entry): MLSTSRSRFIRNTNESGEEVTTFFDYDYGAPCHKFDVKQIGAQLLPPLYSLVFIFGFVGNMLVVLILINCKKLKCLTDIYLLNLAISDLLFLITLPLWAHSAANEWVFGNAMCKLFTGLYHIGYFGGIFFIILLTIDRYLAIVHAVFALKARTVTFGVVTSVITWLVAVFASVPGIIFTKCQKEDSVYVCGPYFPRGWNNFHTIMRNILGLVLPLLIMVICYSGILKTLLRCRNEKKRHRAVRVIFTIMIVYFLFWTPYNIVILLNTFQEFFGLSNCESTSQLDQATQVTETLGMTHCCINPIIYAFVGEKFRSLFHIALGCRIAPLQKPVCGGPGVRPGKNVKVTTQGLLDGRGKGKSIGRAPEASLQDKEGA

IC50 in chemotaxis assay using mouse WEHI cells, ligand mouse MCP-1 (0.7 nM) (murine CCR2 [2]) [nM] | EC50 [3] [nM] | IC50 in chemotaxis assay using human THP-1 cells, ligand MCP-1 (3 nM) [6] [nM] | IC50 in chemotaxis assay using human THP-1 cells, ligand MCP-4 (35 nM) [6] [nM] | EC50 (murine CCR2 [7]) [nM] | IC50 in calcium flux assay using human THP-1 cells, ligand MCP-1 (2.5 nM) [8] [nM] | IC50 in calcium flux assay using human THP-1 cells, ligand MCP-3 (22 nM) [8] [nM] | IC50 in calcium flux assay using human THP-1 cells, ligand MCP-5 (0.43 nM) [8] [nM] | Binder | further results
0.062 | 0.17 | 0.17 | 0.14 | 1.5 | 0.18 | 0.19 | 0.28 | D1 (antibody, human IgG1, V domains shown, also called CCR2 D1 IgG; anti-CCR2 D1 antibody) VH: EVQLVQSGAEVKKPGASVKVSCKASGYTFTGYHMHWVRQAPGQGLEWMGWINPNSGVTKYAQKFQGRVTMTRDTSINTAYMELSRLRFDDTDVYYCATGGFGYWGEGTLVTVSS VL: LPVLTQPPSVSKGLRQTATLTCTGNSNNVGNQGAAWLQQHQGQPPKLLSYRNHNRPSGVSERFSPSRSGDTSSLTITGLQPEDEADYYCLAWDSSLRAFVFGTGTKLTVL | EC50 [1]: 0.168 nM; IC50 of D1 on MCP-1 (1 nM) induced primary human monocyte migration, another donor [4]: 3.48 nM; IC50 of D1 on MCP-1 (1 nM) induced primary human monocyte migration, first donor [4]: 1.02 nM; IC50 of D1 on MCP-1 (3 nM) induced THP-1 cell migration [4]: 0.194 nM; IC50 of D1 on MCP-1 (10 nM) induced THP-1 calcium mobilization [4]: 4.7 nM; IC50 of D1 on MCP-1 (10 nM) induced primary human monocyte calcium mobilization [4]: 2.8 nM; IC50 of D1 on mMCP-1 induced WEHI 274.1 cell migration (murine CCR2 [5]): 66 nM; IC50 in chemotaxis assay using human THP-1 cells, ligand MCP-2 (6.7 nM) [6]: 0.17 nM; IC50 in chemotaxis assay using human THP-1 cells, ligand MCP-3 (1.1 nM) [6]: 0.11 nM; IC50 in chemotaxis assay using human THP-1 cells, ligand MCP-5 (0.65 nM) [6]: 0.19 nM; EC50 (murine CCR2 [9]): ~17 nM; IC50 on MCP-1 induced THP-1 cell migration [10]: 0.168 nM; IC50 on MCP-2 induced THP-1 cell migration [10]: 0.172 nM; IC50 on MCP-3 induced THP-1 cell migration [10]: 0.854 nM; IC50 on MCP-4 induced THP-1 cell migration [10]: 0.138 nM; IC50 on mouse MCP-5 induced THP-1 cell migration [10]: 0.19 nM
0.012 | 0.15 | 0.28 | 0.08 | 2 | 0.37 | 0.19 | 0.27 | D1-1/45H8L1 (antibody, V domains shown, also called D1H1/45H8L1; D1-1B) VH: QVQLVQSGAEVKKPGASVKVSCKASGYTFTGYYMHWVRQAPGQGLEWMGWINPNSGVTKYAQKFQGRVTMTRDTSTSTVYMELSSLRSEDTAVYYCATGGFGYWGEGTLVTVSS VL: QAVLTQPPSVSKGLRQTATLTCTGNSNNVGNQGAAWLQQHQGQPPKLLSYRNHNRPSGVSERFSPSRSGDTSSLTITGLQPEDEADYYCLAWDSSLRAFVFGTGTKLTVL | 
